Source: US20220218639A1

B1: tPA: Tissue plasminogen activator, converts plasminogen into plasmin (protein, UniProt P00750 36-562, looked up)
Tissue-type plasminogen …: SYQVICRDEKTQMIYQQHQSWLRPVLRSNRVEYCWCNSGRAQCHSVPVKSCSEPRCFNGGTCQQALYFSDFVCQCPEGFAGKCCEIDTRATCYEDQGISYRGTWSTAESGAECTNWNSSALAQKPYSGRRPDAIRLGLGNHNYCRNPDRDSKPWCYVFKAGKYSSEFCSTPACSEGNSDCYFGNGSAYRGTHSLTESGASCLPWNSMILIGKVYTAQNPSAQALGLGKHNYCRNPDGDAKPWCHVLKNRRLTWEYCDVPSCSTCGLRQYSQPQFRIKGGLFADIASHPWQAAIFAKHRRSPGERFLCGGILISSCWILSAAHCFQERFPPHHLTVILGRTYRVVPGEEEQKFEVEKYIVHKEFDDDTYDNDIALLQLKSDSSRCAQESSVVRTVCLPPADLQLPDWTECELSGYGKHEALSPFYSERLKEAHVRLYPSSRCTSQHLLNRTVTDNMLCAGDTRSGGPQANLHDACQGDSGGPLVCLNDGRMTLVGIISWGLGCGQKDVPGVYTKVTNYLDWIRDNMRP
B2: α2-antiplasmin: Circulating serpin that rapidly inhibits plasmin (protein)
chain: NQEQVSPLTLLKLGNQEPGGQTALKSPPGVCSRDPTPEQTHRLARAMMAFTADLFSLVAQTSTCPNLILSPLSVALALSHLALGAQNHTLQRLQQVLHAGSGPCLPHLLSRLCQDLGPGAFRLAARMYLQKGFPIKEDFLEQSEQLFGAKPVSLTGKQEDDLANINQWVKEATEGKIQEFLSGLPEDTVLLLLNAIHFQGFWRNKFDPSLTQRDSFHLDEQFTVPVEMMQARTYPLRWFLLEQPEIQVAHFPFKNNMSFVVLVPTHFEWNVSQVLANLSWDTLHPPLVWERPTKVRLPKLYLKHQMDLVATLSQLGLQELFQAPDLRGISEQSLVVSGVQHQSTLELSEVGVEAAAATSIAMSRMSLSSFSVNRPFLFFIFEDTTGLPLFVGSVRNPNPSAPRELKEQQDSPGNKDFLQSLKGFPRGDKLFGPDLKLVPPMEEDYPQFGSPK

How the values were obtained:
preformed blood clots = test: In-vitro circulating plasma lung model of pulmonary embolism; settings: circulating human plasma
Procedure: The in-vitro circulating plasma lung model 200 of pulmonary embolism (as shown in FIGS. 22 and 23), consists of a 3-D printed circuit 210, designed to mimic lung vasculature, and in which preformed blood clots of known mass are placed. This “lung” is in fluid connection with a reservoir 220 of approximately 200-250 mL of human plasma, type-matched to the clots, that is recirculated with a peristaltic pump 230, passed through a heating element (not shown), then pumped through the lung itself at a physiological constant pressure. An injection port 240 allows injection of reagents, enzymes or other molecules. After lysis is initiated, the “lung” is circulated for one hour. Clots are weighed before and after completion of the experiment reweighed, to provide for percentage of clot lysis information for each treatment regime.
In this Example, pulmonary embolism was simulated using the in-vitro lung model of Example 13 and the ability of the delivery system of the present disclosure was analyzed for its ability to remove clots.
Particularly, human plasma (200-250 mL), recirculated (37° C.) and loaded with approximately 4 grams type-matched clots was injected into the delivery system. After 1 hour of circulation, the clots were removed and weighed.

plasmin = plasmin (Homo sapiens, UniProt P00747); settings: binding to the serine in plasmin's active site; cited from earlier work
Sequence of plasmin (P00747 581-810 limits assumed): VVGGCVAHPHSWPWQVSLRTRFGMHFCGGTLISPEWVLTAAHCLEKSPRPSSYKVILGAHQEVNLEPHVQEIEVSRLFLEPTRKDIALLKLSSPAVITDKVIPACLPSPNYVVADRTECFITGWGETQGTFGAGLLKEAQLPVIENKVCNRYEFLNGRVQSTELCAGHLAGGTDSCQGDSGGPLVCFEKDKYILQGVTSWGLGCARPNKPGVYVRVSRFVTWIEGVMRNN
Sequence of plasmin (P00747 97-580 limits assumed): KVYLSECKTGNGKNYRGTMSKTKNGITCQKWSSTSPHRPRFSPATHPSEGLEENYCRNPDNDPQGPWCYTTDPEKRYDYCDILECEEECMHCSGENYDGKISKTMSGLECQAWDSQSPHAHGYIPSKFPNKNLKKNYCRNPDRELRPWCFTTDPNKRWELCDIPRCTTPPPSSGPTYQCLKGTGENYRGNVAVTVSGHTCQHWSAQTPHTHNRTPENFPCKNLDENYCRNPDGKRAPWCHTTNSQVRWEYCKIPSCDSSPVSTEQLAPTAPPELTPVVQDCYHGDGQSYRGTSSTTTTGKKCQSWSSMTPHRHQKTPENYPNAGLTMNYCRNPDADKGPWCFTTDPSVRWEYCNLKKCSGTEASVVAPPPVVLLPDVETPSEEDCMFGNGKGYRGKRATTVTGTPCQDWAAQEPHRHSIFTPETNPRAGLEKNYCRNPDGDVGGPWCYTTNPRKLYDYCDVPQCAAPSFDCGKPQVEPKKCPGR

Molecule | reduction in antiplasmin (α2 AP) (preformed blood clots) | rate constant of plasmin inhibition (plasmin)
B1 | fully depleted | 
B2 |  | 4×10^7 M^−1Sec^−1
